Test results as given in patent US20250129146A1, “COMBINED CANCER THERAPY WITH AN EPITHELIAL CELL ADHESION MOLECULE (EPCAM) INHIBITOR AND A WNT INHIBITOR” (ACADEMIA SINICA, priority 2021, published 2025).
Each block holds one molecule with its values, some of them ahead of it.

How the values were obtained:
Assay type in all cases: cell-based, human
active β-Catenin = experiment: Nuclear translocation of β-Catenin (immunofluorescence staining; cell fractionation with western blot)
Experimental: Cells (1×10^6) were seeded overnight and further allowed to grow in serum free conditions. Then cells were further treated with 20 μg/mL mEpAb2-6 or hEpAb2-6 or MT201 for 6 h or with 400 ng/mL LGK974 (MedChemExpress) for 9 h or combination as indicated. Samples were fractioned into cytosol and nuclear extracts using nuclear/cytosol fractionation kit (Biovision) according to the manufacturer's protocol. The fractions were then subjected to western blot analysis.
(§1) For western blotting, cells were extracted using radioimmunoprecipitation assay (RIPA) buffer [(0.01 M sodium phosphate, pH 7.2), 150 mM NaCl, 2 mM EDTA, 50 mM NaF, 1% Nonidet P-40, 1% sodium deoxycholate, and 0.1% SDS)] containing phosphatase inhibitor (Roche) and protease inhibitor (Roche) cocktail. Equal amounts of protein were separated by SDS-PAGE and then transferred to PVDF membranes. The membranes were blocked with 3% BSA in TBST (Blocking solution) and incubated with necessary primary antibodies in the blocking solution overnight at 4° C. Membranes were then incubated with HRP-conjugated secondary antibodies in the blocking solution for 1 h at room temperature, and protein expression were detected. Antibodies used: anti-α-tubulin (Sigma), anti-EpCAM (abeam), anti-Active β-Catenin (Millipore), anti-total β-Catenin (abeam), anti-Frizzled 6 (CST), anti-Frizzled 7 (Santa Cruz Biotech), anti-LRP5 (abcam), anti-Phospho-LRP5 (abcam), anti-Phospho-LRP6 (CST), anti-LRP6 (CST) and anti-EpEX antibody EpAb3-5 (Produced in house), anti-ADAM17 (abcam), anti-phopho-ADAM17 (abcam), anti-Presenilin2 (abcam), anti-phospho-Presenilin2 (S327) (abcam), anti-phospho-Presenilin2 (S330) (abcam) and anti-Axin2 (CST).
Glass slides were used in 24-well plates and coated with 0.1% gelatin. Further, 3×10^4 cells were seeded in serum free medium overnight. Cells were treated with 20 μg/mL EpAb2-6 for 6 h, or 400 ng/mL LGK974 (MedChemExpress) for 9 h or the combination. Cells were washed using ice-cold PBS and fixed with 4% paraformaldehyde for 15 min at RT and washed with ice-cold PBS. Further, cells were permeabilized using 0.1% triton-X in PBS for 20 min and subsequently washed with PBS. Cells were blocked with 3% BSA in PBS for 1 h at RT. Next, cells were treated with primary antibody anti-Active β-Catenin (Millipore) overnight. Then, cells were washed and treated with secondary antibody in 3% BSA containing PBS along with DAPI for 1 h at RT. Samples were then washed in PBS five times and mounted for microscopy. Nuclear β-Catenin intensities were calculated using IMARIS (Oxford Instruments) software.

TCF = TCF activity (TOP-Flash TCF luciferase reporter)
Experimental: Cells were plated at 5×10^3 cells per well and grown overnight in 12-well plates. Then, cells were transiently transfected with TOP-Flash TCF reporter plasmid (Millipore) using poly-jet transfection reagent (SignaGen). At 48 h post transfection, cells were treated with 20 µg/mL Anti-EpCAM EpAb2-6 (Produced in house) or MT201 (Produced in house) for 6 h or 400 ng/mL LGK974 (MedChemExpress) for 9 h or the combination, as indicated. In addition, cells were treated with EpEX (Produced in house by Expi293 Expression System) or recombinant Wnt3A (R & D systems) or the combination for 8 h. Finally, cells were lysed, and the luciferase assay was performed.
The cells were seeded in 24-well plates (1×10^4 cells/well) and incubated at 37° C. for 24 h. The culture media were refreshed, and the cells were transfected with respective reporter plasmids (TCF reporter or Wnt receptor promoter reporter) by PolyJET (SignaGen). The transfected efficiency was normalized by co-transfected with pRL-TK (20 ng) as an internal control. Additional treatments were conducted as indicated. Firefly luciferase and Renilla luminescence were measured 48 h post-transfection using the Dual-Glo Luciferase Assay System (Promega), according to the manufacturer's recommendations.

[1] = test system: HCT116, HT29 and SW620 cells; experiment: Tumorsphere assay; conditions: for sphere formation capacity: SW620 cells, exogenous Wnt3A, EpEX or combination
Experimental: Cells were seeded in ultra-low adherent 6-well plates (5×10^4 cells per well) or 24-well plates (1×10^3 cells per well) and maintained in DMEM/F-12 supplemented with B27. Further, cells were treated with 20 μg/mL mEpAb2-6, hEpAb2-6 or MT201 (Produced in house), or 400 ng/mL LGK974 (MedChemExpress) or the combination, by direct addition to the culture medium. The entire culture medium, including the treatment component, was changed in every other day. Cells were cultured for 10 days, and on 10th day, spheres were counted and photographed under the microscope.

HT29 and SW620 cells = experiment: Colony formation assay; conditions: for colony formation capacity: SW620 cells, exogenous Wnt3A, EpEX or combination
Experimental: Cells were seeded in 12-well plate (5×10^3 cells per well) and treated with 20 µg/mL mEpAb2-6, hEpAb2-6 or MT201 (Produced in house) or 400 ng/mL LGK974 (MedChemExpress) or combination as indicated in which case the elements were directly added to the culture medium. The medium along with the treatment component were changed in every alternating day and the cells were allowed to grow for 10 days. On the tenth day, cells were washed and fixed with 4% paraformaldehyde and further stained with 1% crystal violet for 30 min. Colonies were washed 3 times with PBS, and images were taken. Furthermore, to measure colony density, the wells were incubated with 0.5% SDS shaking for 2 h at RT. The supernatants were collected, and the absorbance of the solution was taken at 570 nm using a microplate reader.

[2] = test system: Wnt receptors (FZD6/7, LRP5/6); experiment: Wnt receptor protein and mRNA expression (western blot, qPCR); conditions: HCT116 cells
Experimental: as §1
(§2) Total RNA was extracted using TRI reagent and 5 μg of the total RNA was further reverse-transcribed using oligo (dT) primer with reverse transcriptase. Quantitative real time RT-PCR (qPCR) was performed on cDNA using the Light Cycler 480 SYBR Green-I Master kit and the LightCycler480 System. The gene expression levels of each sample were normalized to the expression levels of glyceraldehyde 3-phosphate dehydrogenase (GAPDH) or β-actin.

LRP5/6 = experiment: Phosphorylation of LRP5/6 (western blot)
Experimental: as §1

Oct4, Sox2 and c-Myc = experiment: Stemness (pluripotency) factor expression (western blot, qPCR); conditions: HT29 cells
Experimental: as §1, §2

[3] = wild-type HCT116 cells, EpEX, recombinant Wnt3A or both
[4] = EpEX, Wnt3A or combination, protein and mRNA level
[5] = HCT116 cells, exogenous EpEX, Wnt3A or combination
[6] = wild-type SW620 and HCT116 cells, EpEX, recombinant Wnt3A or the combination for 8 h
[7] = EpCAM-knockout cells, exogenous EpEX, LGK974 or both

TCF activity (TCF; HT29 cells, 20 µg/mL antibody for 6 h): did not show any significant effects
Molecule: MT201: adecatumumab, a human anti-EpCAM antibody that was subjected to clinical trials [reference compound]
nuclear translocation of β-Catenin (active β-Catenin; HT29 cells, 20 μg/mL hEpAb2-6 or MT201 for 6 h): did not show any significant effects | ability to inhibit sphere formation ([1]; comparison of EpAb2-6 with MT201, 20 μg/mL): shows no activity | ability to inhibit colony formation (HT29 and SW620 cells; comparison of EpAb2-6 with MT201, 20 g/mL): shows no activity

TCF activity (TCF; EpEX-treated EpCAM-knockdown and knockout HCT116 cells): significantly rescued the phenomenon | TCF activity (TCF; [6]): could increase
B1: EpEX: extracellular domain of EpCAM, produced in house by Expi293 Expression System (protein)
chain: QEECVCENYKLAVNCFVNNNRQCQCTSVGAQNTVICSKLAAKCLVMKAEMNGSKLGRRAKPEGALQNNDGLYDPDCDESGLFKAKQCNGTSMCWCVNTAGVRRTDKDTEITCSERVRTYWIIIELKHKAREKPYDSKSLRTALQKEITTRYQLDPKFITSILYENNVITIDLVQNSSQKTQNDVDIADVAYYFEKDVKGESLFHSKKMDLTVNGEQLDLDPGQTLIYYVDEKAPEFSMQGLKAGVIAVIVVVVIAVVAGIVVLVISRKKRMAKYEKAEIKEMGEMHRELNA
nuclear accumulation of β-Catenin (active β-Catenin; shEpCAM or KO-EpCAM HCT116 cells treated with exogenous EpEX): significant increase in nuclear accumulation of β-Catenin | nuclear translocation of β-Catenin (active β-Catenin; [3]): could increase | expression of Wnt receptors [2, 4]: upregulated expressions of Wnt receptors | LRP5/6 phosphorylation (LRP5/6; [5]): increased LRP5/6 phosphorylation | expression of pluripotency factors (Oct4, Sox2 and c-Myc; EpEX, Wnt3A or combination): induced expressions of pluripotency factors | tumorsphere formation [1, 7]: reverted to wild-type levels | sphere formation capacity [1]: enhanced | colony formation (HT29 and SW620 cells; [7]): reverted to wild-type levels | colony formation capacity (HT29 and SW620 cells): enhanced

TCF activity (TCF; [6]): could increase
B2: Wnt3A: recombinant Wnt3A (R & D systems) (protein, UniProt P56704 19-352, looked up)
Protein Wnt-3a: SYPIWWSLAVGPQYSSLGSQPILCASIPGLVPKQLRFCRNYVEIMPSVAEGIKIGIQECQHQFRGRRWNCTTVHDSLAIFGPVLDKATRESAFVHAIASAGVAFAVTRSCAEGTAAICGCSSRHQGSPGKGWKWGGCSEDIEFGGMVSREFADARENRPDARSAMNRHNNEAGRQAIASHMHLKCKCHGLSGSCEVKTCWWSQPDFRAIGDFLKDKYDSASEMVVEKHRESRGWVETLRPRYTYFKVPTERDLVYYEASPNFCEPNPETGSFGTRDRTCNVSSHGIDGCDLLCCGRGHNARAERRREKCRCVFHWCCYVSCQECTRVYDVHTCK
nuclear translocation of β-Catenin (active β-Catenin; [3]): could increase | expression of Wnt receptors [2, 4]: upregulated expressions of Wnt receptors | LRP5/6 phosphorylation (LRP5/6; [5]): increased LRP5/6 phosphorylation | expression of pluripotency factors (Oct4, Sox2 and c-Myc; EpEX, Wnt3A or combination): induced expressions of pluripotency factors | sphere formation capacity [1]: enhanced | colony formation capacity (HT29 and SW620 cells): enhanced

B3: EpAb2-6: anti-EpCAM (EpEX) neutralizing monoclonal antibody produced in mice by hybridoma; VH SEQ ID NO: 15, VL SEQ ID NO: 16 (antibody, V domains shown)
VH: VKLQESGPELKKPGETVKISCKASGYTFTDYSMHWVKQAPGKGLKWMGWINTETGEPTYADDFKGRFAFSLETSASTAYLQINNLKNEDTATYFCARTAVYWGQGTTVTVSS
VL: DIQMTQSPSSLSASLGERVSLTCRASQEISVSLSWLQQEPDGTIKRLIYATSTLDSGVPKRFSGSRSGSDYSLTISSLESEDFVDYYCLQYASYPWTFGGGTKLEIK
nuclear β-Catenin (active β-Catenin; wild-type HCT116 cells, 20 μg/mL EpAb2-6 for 6 h, 400 ng/mL LGK974 for 9 h or combination): significantly decreased nuclear β-Catenin signal | expression of Wnt receptors ([2]; EpAb2-6, LGK974 or combination): partially decrease | LRP5/6 phosphorylation (LRP5/6; SW620 cells, LGK974, EpAb2-6 or combined treatment): could decrease LRP5/6 phosphorylation | expression of pluripotency factors (Oct4, Sox2 and c-Myc; LGK974, EpAb2-6 or combined treatment): decreased pluripotency factor expressions | tumorsphere formation ([1]; HCT116 and HT29 cells, 20 μg/mL EpAb2-6, 400 ng/mL LGK974 or combination, 10 days): decreased | cancer stemness properties ([1]; summary statement, CRC cells, tumorsphere and colony formation): partially attenuate cancer sternness properties | colony formation (HT29 and SW620 cells; HT29 cells, 20 µg/mL EpAb2-6, 400 ng/mL LGK974 or combination, 10 days): decreased
